Where two headings read alike, the source gives them in different places.
T1: human CLDN6 (human, UniProt P56747 1-220)
T1 chain: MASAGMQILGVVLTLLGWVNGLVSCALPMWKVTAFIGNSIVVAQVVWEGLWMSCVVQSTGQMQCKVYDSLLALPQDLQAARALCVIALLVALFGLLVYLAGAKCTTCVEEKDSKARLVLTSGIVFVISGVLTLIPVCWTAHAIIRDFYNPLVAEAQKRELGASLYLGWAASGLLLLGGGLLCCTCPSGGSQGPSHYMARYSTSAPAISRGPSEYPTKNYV

T2: monkey CLDN6 (Cyno CLDN6) (monkey (Cyno))
T2 chain: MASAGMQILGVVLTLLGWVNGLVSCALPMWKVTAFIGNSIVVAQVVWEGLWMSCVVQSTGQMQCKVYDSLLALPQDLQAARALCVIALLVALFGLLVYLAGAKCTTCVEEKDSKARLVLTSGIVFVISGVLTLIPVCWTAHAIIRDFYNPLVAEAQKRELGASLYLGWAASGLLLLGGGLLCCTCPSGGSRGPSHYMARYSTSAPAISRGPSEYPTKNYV

T3: mouse CLDN6 (mouse, UniProt Q9Z262 1-219)
T3 chain: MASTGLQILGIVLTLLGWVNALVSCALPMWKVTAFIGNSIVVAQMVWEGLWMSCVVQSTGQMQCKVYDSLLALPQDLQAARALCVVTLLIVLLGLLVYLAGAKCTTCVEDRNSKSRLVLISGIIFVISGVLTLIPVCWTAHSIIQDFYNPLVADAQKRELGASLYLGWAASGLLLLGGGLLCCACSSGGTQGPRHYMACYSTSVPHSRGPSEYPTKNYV


Assays:
human CLDN6 [1] = target: T1, human CLDN6; test: FACS; HepG2 cells
[2] = target: T2, monkey CLDN6 (Cyno CLDN6); test: FACS
mouse CLDN6 = target: T3, mouse CLDN6; test: FACS
[3] = target: T2, monkey CLDN6 (Cyno CLDN6); test: FACS
human CLDN6 [4] = target: T1, human CLDN6; test: FACS; HepG2 cells, FIG. 24

EC50 (human CLDN6 [1]) [µg/mL] | EC50 [2] [µg/mL] | EC50 (mouse CLDN6) [µg/mL] | EC50 [3] [µg/mL] | EC50 (human CLDN6 [4]) [µg/mL] | Binder
0.521 | – | – | – | – | RecA101 (antibody, V domains shown) VH: EVQLQQSGPELVKPGASVKMSCKASGYTFTDYNMHWVKKSHGKSLEWIGYVNPNNGATSYNQKFKGKATLTVNKSSSTAYMELRSLTSEDSAVYNCARWDGYVYYYGLDYWGQGTSVTVSS VL: DIQMTQSSSYLSVSLGGRVTITCKASDHINNWLAWYQQKPGNAPRLLISGATSLETGVPSRFSGSGSGKDYTLSITSLQTEDVATYYCQQYWNTPYTFGGGTKLEIKR
– | – | 0.844 | – | – | 54B5A7 (antibody, V domains shown) VH: EVQLQQSGPELVKPGASVKMSCKASGYTFTDYNMHWVKKSHGKSLEWIGYINPNNGATNYNQKFKGKATLTVNKSSSTAYMELRSLTSEDSAVYNCARWDGYVYYYGMDYWGQGTSVTVSS VL: DIQMTQSSSYLSVSLGGRVTITCKASDHINNWLAWYQQKPGNAPRLLISGATSLETGVPSRFSGSGSGKDYTLSITSLQTEDVATYYCQQYWNTPYTFGGGTKLEIKR
– | 0.0916 | – | 0.0916 | 0.537 | IMAB027 (antibody, V domains shown) VH: EVQLQQSGPELVKPGASMKISCKASGYSFTGYTMNWVKQSHGKNLEWIGLINPYNGGTIYNQKFKGKATLTVDKSSSTAYMELLSLTSEDSAVYYCARDYGFVLDYWGQGTTLTVSS VL: IVLTQSPAIMSASPGEKVTITCSASSSVSYLHWFQQKPGTSPKLWVYSTSNLPSGVPARFGGSGSGTSYSLTISRMEAEDAATYYCQQRSIYPPWTFGGGTKLEIKR
– | 0.844 | 8.57 | – | – | PiH1004 (antibody, V domains shown) VH: QVQLVQSGAEVKKPGASVKVSCKASGYTFTDYNMHWVRQAPGQSLEWIGYVNPNNGATSYNQKFKGRATMTVDKSTSTVYMELSSLRSEDTAVYNCARWDGYVYYYGLDYWGQGTLVTVSS VL: DIQMTQSPSSLSASVGDRVTITCKASDHINNWLAWYQQKPGKVPKLLISGATSLETGVPSRFSGSGSGTDYTLTISSLQPEDVATYYCQQYWSTPYTFGGGTKLEIKR

More lines, now with the values behind:

Binder | EC50 (human CLDN6 [1]) [µg/mL] | EC50 [2] [µg/mL] | EC50 (mouse CLDN6) [µg/mL] | EC50 [3] [µg/mL] | EC50 (human CLDN6 [4]) [µg/mL]
51C10H4 (antibody, V domains shown) VH: EVQLQQSGPELVKPGASVKMSCKASGYTFTDYNMHWVKKSHGKSLEWIGYVNPNNGATSYNQKFKGKATLTVNKSSSTAYMELRSLTSEDSAVYNCARWDGYVYYYGLDYWGQGTSVTVSS VL: DIQMTQSSSYLSVSLGGRVTITCKASDHINNWLAWYQQKPGNAPRLLISGATSLETGVPSRFSGSGSGKDYTLSITSLQTEDVATYYCQQYWSTPYTFGGGTKLEIKR | – | 0.636 | 0.608 | – | –
PiH2006 (antibody, V domains shown) VH: QVQLVQSGAEVKKPGASVKVSCKASGYTFTDYNMHWVRQAPGQRLEWIGYINPNNGATNYNQKFKGRVTITVDTSASTAYMELSSLRSEDTAVYNCARWDGYVYYYGMDYWGQGTLVTVSS VL: DIQMTQSPSSLSASVGGRVTITCKASDHINNWLAWYQQKPGKAPKLLISGATSLETGVPSRFSGSGSGTDYTFTISSLQPEDIATYYCQQYWNTPYTFGGGTKLEIKR | – | – | 52.3 | 1.33 | –
PiH1008 (antibody, V domains shown) VH: QVQLVQSGAEVKKPGASVKVSCKASGYTFTDYNMHWVRQAPGQSLEWIGYVNPNNGATSYNQKFKGRATMTVDKSTSTVYMELSSLRSEDTAVYNCARWDGYVYYYGLDYWGQGTLVTVSS VL: DIQMTQSPSSLSASVGGRVTITCKASDHINNWLAWYQQKPGKVPRLLISGATSLETGVPSRFSGSGSGTDYTLTISSLQPEDVATYYCQQYWSTPYTFGGGTKLEIKR | – | 0.97 | 6.42 | – | –
PiH1006 (antibody, V domains shown) VH: QVQLVQSGAEVKKPGASVKVSCKASGYTFTDYNMHWVRQAPGQGLEWIGYVNPNNGATSYNQKFKGRVTMTVDTSTSTVYMELSSLRSEDTAVYNCARWDGYVYYYGLDYWGQGTLVTVSS VL: DIQMTQSPSSLSASVGGRVTITCKASDHINNWLAWYQQKPGKVPRLLISGATSLETGVPSRFSGSGSGTDYTLTISSLQPEDVATYYCQQYWSTPYTFGGGTKLEIKR | – | 1.28 | 18.4 | – | –
